Data on two molecules can be found in patent US6936586B1, “Synthetic IL-10 analogues” (Steeno Research Group A/S, priority 1996, dated 2005).

The test system of series [1] is human monocytes. Put plainly: Viability of cultured cells with IT9302. In kind it is cell-based. To be noted: any concentration of IT9302 between 0.1 and 1000 ng/ml; viability always exceeded 80% after 1 day in culture.
The test system of a further series is PBMCs. As to the kind of experiment: T cell proliferation, PHA stimulated PBMC, 3H-thymidine incorporation. To be noted: 72 hours, 3H-thymidine last 18 hours. In kind it is cell-based, human. As for the experimental part:
Proliferation assay. PBMCs (2×10^5) were cultivated in 200 μl of RPMI medium with 10% FCS for 72 hours with PHA 0.5 μl/ml and rhIL-10 (1, 10, 100 ng/ml) or IT9302 (0.1, 1, 10 ng/ml) in triplets. The last 18 hours ^3H-thymidine was added with 0.5 μCi/well (Amersham, Denmark). The cells were harvested on a filter (Glass Microfibre Filters, Whatman, Cat. No. 1822 849) and scintillation fluid (Ultima, Gold MV, Packard) was added. The scintillation counting was made on Tri-Carb model 1600 TR, Packard.
PBMC's were stimulated with PHA as described above and rhIL-10 and IT9302 were added for 72 hours, and the ^3H-thymidine incorporation was measured for the last 18 hours.
In general terms: Incorporation of labelled thymidine or its analogues reports DNA synthesis.

The test system of series [2] is normal human CD4+ T cells. Put plainly: IL-4 production by cultured CD4+ T lymphocytes, ECL-Western blotting. The class given is cell-based. To be noted: IT9302 10 ng/ml or IL-10 100 ng/ml, 3 days, cytosolic fractions. As for the experimental part: CD4+ T lymphocytes were purified from heparinized normal human blood. Following Lymphoprep™ (Nycomed Pharma, Oslo, Norway) gradient centrifugation, the mononuclear cells were further sorted at 4° C. using Dynabeads (Dynal AS, Norway) coated with monoclonal anti-CD4 antibodies. The beads were detached by adding polyclonal anti-mouse antibody (Dynal AS, Norway). The purity of the positively selected cells were higher than 99% as judged by FACS analysis. […]
Cells or freeze-dried cell culture supernatants were used for IL-4 protein content determination. […] The blots were then incubated with a polyclonal goat anti-human IL-4 antibody (R&D Systems, UK) followed by a horseradish peroxidase-labelled secondary antibody (Cat. no. RPN 2106 ECL, Amersham, UK), and the immunostaining was detected by exposing a film (Kodak X-OMAT-S, USA) for 90 seconds.
Thus, CD4+ T cells, purified as described in “Methods for T cell chemotaxis”, and cultured as described in the section “Determination of IL-4 production by CD4+ T lymphocytes”, were stimulated for 3 days with IT9302 (10 ng/ml) or IL-10 (100 ng/ml). Cytosolic fractions were collected and analyzed for their IL-4 content using Western blotting (FIG. 9) and a goat anti-human IL-4 polyclonal antibody.
In general terms: In western blotting, separated proteins are transferred to a membrane and probed.

Series [3] deals with human monocytes. As to the kind of experiment: Determination of apoptosis in monocytes (DNA typing, propidium iodide flow cytometry). In kind it is cell-based. To be noted: with IFN-γ stimulation; non-stimulated 6.6%, IFN-γ alone 4.1%. As for the experimental part: Alternatively cells were fixed in 10% DMSO, 40% RPMI 1640 and 50% sterile FCS, and stored at −80° C. and used for DNA typing.
DNA typing of the stimulated monocytes. The fixed cells were incubated in 70 ethanol for 60 minutes and washed twice in Hank's solution. 1×10^6 cells were resuspended in 250 μl of RNase 1 μg/ml in 1.12% sodium citrate, pH 8.4 (Ribonuclease A, Pharmacia No. 17-0442-01) and incubated at 37° C. for 3 minutes. Thereafter, 250 μl of propidiumiodide (50 μg/ml in Hank's solution) was added, and cells were incubated in the dark for 30 minutes. After this the cells were washed twice in Hank's solution (Jensen et al., (110)). The DNA content was measured by flow cytometry on a Coulter-Epics XL-MCL at a wavelength of 550 nm.
The IFN-γ stimulated monocytes from above were incubated with propidium iodide and the DNA content was measured by flow cytometry. The fraction of cells expressing DNA in G1 or G2 phase of cell proliferation was measured and also the fraction expressing apoptosis.

In series [4] the test system is human monocytes. As to the kind of experiment: Class II MHC (HLA-DR) antigen expression on IFN-γ stimulated human monocytes, flow cytometry. To be noted: 10 ng/ml rhIL-10 before IFN-γ 10 ng/ml, 40 hours; unstimulated 36.8%, IFN-γ alone 58.4%. In kind it is cell-based. As for the experimental part: HLA-DR expression on human monocytes. The monocytes were isolated from fresh, heparinized blood by adherence to plastic at 37° C. in RPMI 1640 containing 10% FCS. After incubation, the supernatant was removed, Hank's solution (4° C. with 1% FCS) was added, and the cells were detached by cooling at […] for 15 minutes and gentle banging to the table. Monocytes were stimulated (2×10^6 cells/ml) in RPMI 1640 added 2% FCS, with IFN-γ (10 ng/ml), or rhIL-10 (100, 10, 1 ng/ml) added before IFN-γ, or IT9302 (10, 1, 0.1 ng/ml) added before IFN-γ for 40 hours. The cells were detached from the wells by cooling as before. Fresh, non-fixed cells were used for surface typing by antihuman antibody for HLA-DR. The cells were resuspended in Hank's solution with 1% FCS, 1×10^6 cells/ml and FITC conjugated mouse-anti-human HLA DR, DP, […] antibodies were added (F 0817, DAKO Denmark) for 45 minutes. The cells were washed three times in Hank's solution and a FACS analysis was performed on a Coulter-Epics XL-MCL flow cytometer at a wavelength of 488 nm. Non-specific binding was determined with a non-relevant Fitch conjugated antibody (mouse anti goat DAKO F 479).
The monocytes were purified as described above and stimulated for 40 hours by IFN-γ (10 ng/ml) and/or rhIL-10 and/or IT9302 added 30 minutes before IFN-γ. […]
A general note: In flow cytometry, cells or beads pass a laser one at a time.

Peptide text beside a SMILES is read from it.

With `CC[C@H](C)[C@H](NC(=O)[C@H](CCCCN)NC(=O)[C@H](CCSC)NC(=O)[C@@H](NC(=O)[C@H](CCSC)NC(=O)[C@H](Cc1ccc(O)cc1)NC(=O)[C@H](C)N)[C@@H](C)O)C(=O)N[C@@H](CCCNC(=N)N)C(=O)N[C@@H](CC(N)=O)C(=O)O` [IT9302, NH2-Ala-Tyr-Met-Thr-Met-Lys-Ile-Arg-Asn-COOH] (H-AYMTMKIRN-OH), in the series with human monocytes [1], the “effect on viability of cells” value is given as “did not in this or in the following examples affect viability”.

B1: rhIL-10: recombinant human interleukin 10 obtained from Pepro Tech Inc. (protein)
chain: SPGQGTQSENSCTHFPGNLPNMLRDLRDAFSRVKTFFQMKDQLDNLLLKESLLEDFKGYLGCQALSEMIQFYLEEVMPQAENQDPDIKAHVNSLGENLKTLRLRLRRCHRFLPCENKSKAVEQVKNAFNKLQEKGIYKAMSEFDIFINYIEAYMTMKIRN
Take B1: in the series on PBMCs, the “optimum concentration for downregulation of cell proliferation” value stood at 100 ng/mL. For the same molecule, the “production of IL-4 by cultured normal human CD4+ T cells” value in series [2] is reported as “induce the production of IL-4”. Further, the “fraction of monocytes expressing apoptosis” value in the series on human monocytes [3] worked out at 10.3%. In the series on human monocytes [4], the “MHC II antigen expression in the cell population” value is on record as 25.2%.
